Where two headings read alike, the source gives them in different places.
Assays:
Assay in all cases: AUC; sedimentation velocity, interference optics; 40 uM protein in 25 mM TES, 100 mM NaCl, 100 uM EDTA, pH 7.4; apo samples and samples with 250 uM Cu2+ and Ca2+; no reducing agent; c(s) distribution by SedFit; self-association (monomer, dimer, higher oligomers)
[1] = target: human S100A5 C43S/C79S, Cysteine-free variant (human) (UniProt P33763)
[2] = target: human S100A5, wildtype (human) (UniProt P33763)
[3] = target: human S100A5, wildtype (human) (UniProt P33763); remark: listed apart in the source

Row | stoichiometry N [1] | stoichiometry N [2] | stoichiometry N [3] | Substance
1 | 2 |  |  | human S100A5 C43S/C79S, Cysteine-free variant (from UniProt P33763 1-92) (natural protein)
2 |  | 2 | > 12 | human S100A5, wildtype (from UniProt P33763 1-92) (natural protein)

— article PMC5700546
